Assays:
[1] = molecular target: A244-rgp120 grown in kifunensine treated cells (HIV-1 isolate A244); test: ELISA, mAb titrated on gp120, absorbance 492 nm; curve 496 (A244 gp120 kif)
[2] = molecular target: A244-rgp120 grown in GnTI- cells (HIV-1 isolate A244); test: ELISA, mAb titrated on gp120, absorbance 492 nm; curve 495 (A244 gp120 GNTI-)
[3] = molecular target: 1209 V1/V2/V3/C3 scaffold grown in kifunensine; test: ELISA, mAb titrated on scaffold, absorbance 492 nm; curve 509 (1209 kif)

## PGT128 broadly neutralizing monoclonal antibody
[1]
  EC50: < 0.01 µg/mL
[2]
  EC50: < 0.01 µg/mL
[3]
  EC50: 0.09 µg/mL
